# Measurements as given in US20240400654A1.
# Several values for one entry are separate records, joined by “and”; a condition that tells them apart may be missing. Equal values may be shown once.
# B1: KB001 mouse Fab VL F33N (Fab, V domains shown)
# VH: EVQLKQSGPGLVAPSQSLSITCTVSGFSLSIYSVHWVRQPPGKGLEWLGMIWGGGSSDYNSALKSRLSISKDNSKSQVFLKMNSLQTDDTAMYYCARNGNFYAMDYWGQGTSVTVSS
# VL: QIVLTQSPAIMSASLGERVTMTCTASSSVSSSNLHWYQQKPGSSPQLWIYSTSNLASGVPARFSGSGSGTSYSLTISSMEAEDAATYYCHQYHHSPYIYTFGGGTKLEIK
# B2: KB001 mouse Fab VL S53D (Fab, V domains shown)
# VH: EVQLKQSGPGLVAPSQSLSITCTVSGFSLSIYSVHWVRQPPGKGLEWLGMIWGGGSSDYNSALKSRLSISKDNSKSQVFLKMNSLQTDDTAMYYCARNGNFYAMDYWGQGTSVTVSS
# VL: QIVLTQSPAIMSASLGERVTMTCTASSSVSSSFLHWYQQKPGSSPQLWIYSTDNLASGVPARFSGSGSGTSYSLTISSMEAEDAATYYCHQYHHSPYIYTFGGGTKLEIK
# B3: KB001 mouse Fab VL S53E (Fab, V domains shown)
# VH: EVQLKQSGPGLVAPSQSLSITCTVSGFSLSIYSVHWVRQPPGKGLEWLGMIWGGGSSDYNSALKSRLSISKDNSKSQVFLKMNSLQTDDTAMYYCARNGNFYAMDYWGQGTSVTVSS
# VL: QIVLTQSPAIMSASLGERVTMTCTASSSVSSSFLHWYQQKPGSSPQLWIYSTENLASGVPARFSGSGSGTSYSLTISSMEAEDAATYYCHQYHHSPYIYTFGGGTKLEIK
# B4: KB001 mouse Fab VL T52K (Fab, V domains shown)
# VH: EVQLKQSGPGLVAPSQSLSITCTVSGFSLSIYSVHWVRQPPGKGLEWLGMIWGGGSSDYNSALKSRLSISKDNSKSQVFLKMNSLQTDDTAMYYCARNGNFYAMDYWGQGTSVTVSS
# VL: QIVLTQSPAIMSASLGERVTMTCTASSSVSSSFLHWYQQKPGSSPQLWIYSKSNLASGVPARFSGSGSGTSYSLTISSMEAEDAATYYCHQYHHSPYIYTFGGGTKLEIK
# B5: KB001 mouse Fab VL T52M (Fab, V domains shown)
# VH: EVQLKQSGPGLVAPSQSLSITCTVSGFSLSIYSVHWVRQPPGKGLEWLGMIWGGGSSDYNSALKSRLSISKDNSKSQVFLKMNSLQTDDTAMYYCARNGNFYAMDYWGQGTSVTVSS
# VL: QIVLTQSPAIMSASLGERVTMTCTASSSVSSSFLHWYQQKPGSSPQLWIYSMSNLASGVPARFSGSGSGTSYSLTISSMEAEDAATYYCHQYHHSPYIYTFGGGTKLEIK
# B6: KB001 mouse Fab VL S53V (Fab, V domains shown)
# VH: EVQLKQSGPGLVAPSQSLSITCTVSGFSLSIYSVHWVRQPPGKGLEWLGMIWGGGSSDYNSALKSRLSISKDNSKSQVFLKMNSLQTDDTAMYYCARNGNFYAMDYWGQGTSVTVSS
# VL: QIVLTQSPAIMSASLGERVTMTCTASSSVSSSFLHWYQQKPGSSPQLWIYSTVNLASGVPARFSGSGSGTSYSLTISSMEAEDAATYYCHQYHHSPYIYTFGGGTKLEIK
# B7: KB001 mouse Fab VL S53R (Fab, V domains shown)
# VH: EVQLKQSGPGLVAPSQSLSITCTVSGFSLSIYSVHWVRQPPGKGLEWLGMIWGGGSSDYNSALKSRLSISKDNSKSQVFLKMNSLQTDDTAMYYCARNGNFYAMDYWGQGTSVTVSS
# VL: QIVLTQSPAIMSASLGERVTMTCTASSSVSSSFLHWYQQKPGSSPQLWIYSTRNLASGVPARFSGSGSGTSYSLTISSMEAEDAATYYCHQYHHSPYIYTFGGGTKLEIK
# B8: KB001 mouse Fab VL T52L (Fab, V domains shown)
# VH: EVQLKQSGPGLVAPSQSLSITCTVSGFSLSIYSVHWVRQPPGKGLEWLGMIWGGGSSDYNSALKSRLSISKDNSKSQVFLKMNSLQTDDTAMYYCARNGNFYAMDYWGQGTSVTVSS
# VL: QIVLTQSPAIMSASLGERVTMTCTASSSVSSSFLHWYQQKPGSSPQLWIYSLSNLASGVPARFSGSGSGTSYSLTISSMEAEDAATYYCHQYHHSPYIYTFGGGTKLEIK
# B9: KB001 mouse Fab VL S53A (Fab, V domains shown)
# VH: EVQLKQSGPGLVAPSQSLSITCTVSGFSLSIYSVHWVRQPPGKGLEWLGMIWGGGSSDYNSALKSRLSISKDNSKSQVFLKMNSLQTDDTAMYYCARNGNFYAMDYWGQGTSVTVSS
# VL: QIVLTQSPAIMSASLGERVTMTCTASSSVSSSFLHWYQQKPGSSPQLWIYSTANLASGVPARFSGSGSGTSYSLTISSMEAEDAATYYCHQYHHSPYIYTFGGGTKLEIK
# B10: KB001 mouse Fab VL F33H (Fab, V domains shown)
# VH: EVQLKQSGPGLVAPSQSLSITCTVSGFSLSIYSVHWVRQPPGKGLEWLGMIWGGGSSDYNSALKSRLSISKDNSKSQVFLKMNSLQTDDTAMYYCARNGNFYAMDYWGQGTSVTVSS
# VL: QIVLTQSPAIMSASLGERVTMTCTASSSVSSSHLHWYQQKPGSSPQLWIYSTSNLASGVPARFSGSGSGTSYSLTISSMEAEDAATYYCHQYHHSPYIYTFGGGTKLEIK
# B11: KB001 mouse Fab VL S53Y (Fab, V domains shown)
# VH: EVQLKQSGPGLVAPSQSLSITCTVSGFSLSIYSVHWVRQPPGKGLEWLGMIWGGGSSDYNSALKSRLSISKDNSKSQVFLKMNSLQTDDTAMYYCARNGNFYAMDYWGQGTSVTVSS
# VL: QIVLTQSPAIMSASLGERVTMTCTASSSVSSSFLHWYQQKPGSSPQLWIYSTYNLASGVPARFSGSGSGTSYSLTISSMEAEDAATYYCHQYHHSPYIYTFGGGTKLEIK
# B12: KB001 mouse Fab VL S53L (Fab, V domains shown)
# VH: EVQLKQSGPGLVAPSQSLSITCTVSGFSLSIYSVHWVRQPPGKGLEWLGMIWGGGSSDYNSALKSRLSISKDNSKSQVFLKMNSLQTDDTAMYYCARNGNFYAMDYWGQGTSVTVSS
# VL: QIVLTQSPAIMSASLGERVTMTCTASSSVSSSFLHWYQQKPGSSPQLWIYSTLNLASGVPARFSGSGSGTSYSLTISSMEAEDAATYYCHQYHHSPYIYTFGGGTKLEIK
# B13: KB001 mouse Fab VL S53W (Fab, V domains shown)
# VH: EVQLKQSGPGLVAPSQSLSITCTVSGFSLSIYSVHWVRQPPGKGLEWLGMIWGGGSSDYNSALKSRLSISKDNSKSQVFLKMNSLQTDDTAMYYCARNGNFYAMDYWGQGTSVTVSS
# VL: QIVLTQSPAIMSASLGERVTMTCTASSSVSSSFLHWYQQKPGSSPQLWIYSTWNLASGVPARFSGSGSGTSYSLTISSMEAEDAATYYCHQYHHSPYIYTFGGGTKLEIK
# B14: KB001 mouse Fab VL N54K (Fab, V domains shown)
# VH: EVQLKQSGPGLVAPSQSLSITCTVSGFSLSIYSVHWVRQPPGKGLEWLGMIWGGGSSDYNSALKSRLSISKDNSKSQVFLKMNSLQTDDTAMYYCARNGNFYAMDYWGQGTSVTVSS
# VL: QIVLTQSPAIMSASLGERVTMTCTASSSVSSSFLHWYQQKPGSSPQLWIYSTSKLASGVPARFSGSGSGTSYSLTISSMEAEDAATYYCHQYHHSPYIYTFGGGTKLEIK
# B15: KB001 mouse Fab VL L34I (Fab, V domains shown)
# VH: EVQLKQSGPGLVAPSQSLSITCTVSGFSLSIYSVHWVRQPPGKGLEWLGMIWGGGSSDYNSALKSRLSISKDNSKSQVFLKMNSLQTDDTAMYYCARNGNFYAMDYWGQGTSVTVSS
# VL: QIVLTQSPAIMSASLGERVTMTCTASSSVSSSFIHWYQQKPGSSPQLWIYSTSNLASGVPARFSGSGSGTSYSLTISSMEAEDAATYYCHQYHHSPYIYTFGGGTKLEIK
# B16: KB001 mouse Fab VL T52R (Fab, V domains shown)
# VH: EVQLKQSGPGLVAPSQSLSITCTVSGFSLSIYSVHWVRQPPGKGLEWLGMIWGGGSSDYNSALKSRLSISKDNSKSQVFLKMNSLQTDDTAMYYCARNGNFYAMDYWGQGTSVTVSS
# VL: QIVLTQSPAIMSASLGERVTMTCTASSSVSSSFLHWYQQKPGSSPQLWIYSRSNLASGVPARFSGSGSGTSYSLTISSMEAEDAATYYCHQYHHSPYIYTFGGGTKLEIK
# B17: KB001 mouse Fab VL N54I (Fab, V domains shown)
# VH: EVQLKQSGPGLVAPSQSLSITCTVSGFSLSIYSVHWVRQPPGKGLEWLGMIWGGGSSDYNSALKSRLSISKDNSKSQVFLKMNSLQTDDTAMYYCARNGNFYAMDYWGQGTSVTVSS
# VL: QIVLTQSPAIMSASLGERVTMTCTASSSVSSSFLHWYQQKPGSSPQLWIYSTSILASGVPARFSGSGSGTSYSLTISSMEAEDAATYYCHQYHHSPYIYTFGGGTKLEIK
# B18: KB001 mouse Fab VL S53C (Fab, V domains shown)
# VH: EVQLKQSGPGLVAPSQSLSITCTVSGFSLSIYSVHWVRQPPGKGLEWLGMIWGGGSSDYNSALKSRLSISKDNSKSQVFLKMNSLQTDDTAMYYCARNGNFYAMDYWGQGTSVTVSS
# VL: QIVLTQSPAIMSASLGERVTMTCTASSSVSSSFLHWYQQKPGSSPQLWIYSTCNLASGVPARFSGSGSGTSYSLTISSMEAEDAATYYCHQYHHSPYIYTFGGGTKLEIK
# B19: KB001 mouse Fab VL L34M (Fab, V domains shown)
# VH: EVQLKQSGPGLVAPSQSLSITCTVSGFSLSIYSVHWVRQPPGKGLEWLGMIWGGGSSDYNSALKSRLSISKDNSKSQVFLKMNSLQTDDTAMYYCARNGNFYAMDYWGQGTSVTVSS
# VL: QIVLTQSPAIMSASLGERVTMTCTASSSVSSSFMHWYQQKPGSSPQLWIYSTSNLASGVPARFSGSGSGTSYSLTISSMEAEDAATYYCHQYHHSPYIYTFGGGTKLEIK
# B20: KB001 mouse Fab VL N54W (Fab, V domains shown)
# VH: EVQLKQSGPGLVAPSQSLSITCTVSGFSLSIYSVHWVRQPPGKGLEWLGMIWGGGSSDYNSALKSRLSISKDNSKSQVFLKMNSLQTDDTAMYYCARNGNFYAMDYWGQGTSVTVSS
# VL: QIVLTQSPAIMSASLGERVTMTCTASSSVSSSFLHWYQQKPGSSPQLWIYSTSWLASGVPARFSGSGSGTSYSLTISSMEAEDAATYYCHQYHHSPYIYTFGGGTKLEIK
# B21: KB001 mouse Fab VL L34V (Fab, V domains shown)
# VH: EVQLKQSGPGLVAPSQSLSITCTVSGFSLSIYSVHWVRQPPGKGLEWLGMIWGGGSSDYNSALKSRLSISKDNSKSQVFLKMNSLQTDDTAMYYCARNGNFYAMDYWGQGTSVTVSS
# VL: QIVLTQSPAIMSASLGERVTMTCTASSSVSSSFVHWYQQKPGSSPQLWIYSTSNLASGVPARFSGSGSGTSYSLTISSMEAEDAATYYCHQYHHSPYIYTFGGGTKLEIK
# Biological target: HRgpA-6H (Porphyromonas gingivalis) (UniProt P28784)
# Experiment: ELISA, coated HRgpA-6H
# Sequence of UniProt P28784 (P28784 228-860 limits assumed): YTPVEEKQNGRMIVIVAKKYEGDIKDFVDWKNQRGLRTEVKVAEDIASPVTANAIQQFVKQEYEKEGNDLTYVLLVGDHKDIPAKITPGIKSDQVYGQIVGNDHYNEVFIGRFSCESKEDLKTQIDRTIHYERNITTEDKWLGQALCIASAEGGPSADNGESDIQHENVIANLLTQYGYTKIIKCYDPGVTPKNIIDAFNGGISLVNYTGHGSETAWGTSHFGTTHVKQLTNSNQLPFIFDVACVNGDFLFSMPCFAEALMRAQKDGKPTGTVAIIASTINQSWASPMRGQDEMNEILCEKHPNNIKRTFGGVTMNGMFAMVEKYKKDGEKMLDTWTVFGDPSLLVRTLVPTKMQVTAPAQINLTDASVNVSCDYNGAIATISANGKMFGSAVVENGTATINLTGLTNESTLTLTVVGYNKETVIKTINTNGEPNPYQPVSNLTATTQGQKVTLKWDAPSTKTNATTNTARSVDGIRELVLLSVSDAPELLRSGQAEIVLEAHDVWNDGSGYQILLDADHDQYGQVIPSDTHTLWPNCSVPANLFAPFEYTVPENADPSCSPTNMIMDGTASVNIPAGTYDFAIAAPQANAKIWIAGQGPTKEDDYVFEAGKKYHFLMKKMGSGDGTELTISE
Binder,OD450 nm,Ratio OD(Variant)/OD(WT)
B1,0.64,0.844
B2,0.775,0.984
B3,0.766,0.973
B4,0.681,0.865
B5,0.662,0.841
B6,0.702,0.891
B7,0.637,0.809
B8,0.769,0.977
B9,0.784,0.996
B10,0.736,0.971
B11,0.776 and 0.781,0.985 and 0.992
B12,0.639 and 0.636,0.811 and 0.808
B13,0.727,0.923
B14,0.727,0.928
B15,0.67,0.884
B16,0.724 and 0.681 and 0.685,0.919 and 0.865 and 0.87
B17,0.755 and 0.772 and 0.754,0.964 and 0.985 and 0.962
B18,0.697,0.885
B19,0.736 and 0.741 and 0.714,0.971 and 0.978 and 0.911
B20,0.646,0.825
B21,0.641 and 0.634,0.846 and 0.836
